# Measured values from the supplement of paper PMC10567573.
# B1: KRT13 (parent)
# chain: YGGGLGGGFGGGFAGGFVDFGACD
# Variants of: B1
# Experiment: protein stability index of a GFP-peptide fusion (GPS, HEK-293T) (PSI 1-6); higher = more stable
# Details: c terminus: a fixed tail appended
# 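Note: lentivirally expressed fusions sorted by FACS into six bins by GFP to DsRed ratio, PSI derived from sequencing read proportions per bin multiplied by bin number.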
row,Variant,protein stability index
1,YGGGLGGGFGLGFAGGFVDFGACD,3.08
2,YGGGLGGGFGQGFAGGFVDFGACD,1.73
3,YGGGLGGGFGDGFAGGFVDFGACD,2.38
4,YGGGLGGGFGVGFAGGFVDFGACD,2.4
5,YGGGLGGGFGCGFAGGFVDFGACD,1.56
6,YGGGLGGGFGHGFAGGFVDFGACD,1.75
7,YGGGLGGGFGNGFAGGFVDFGACD,2.43
8,YGGGLGGGFGSGFAGGFVDFGACD,1.92
9,YGGGLGGGFGRGFAGGFVDFGACD,1.86
10,YGGGLGGGFGTGFAGGFVDFGACD,1.84
11,YGGGLGGGFGIGFAGGFVDFGACD,3.54
12,YGGGLGGGFGFGFAGGFVDFGACD,2.07
13,YGGGLGGGFGYGFAGGFVDFGACD,4.04
14,YGGGLGGGFGPGFAGGFVDFGACD,2.25
15,YGGGLGGGFGEGFAGGFVDFGACD,2.12
16,YGGGLGGGFGKGFAGGFVDFGACD,1.97
17,YGGGLGGGFGMGFAGGFVDFGACD,2.25
18,YGGGLGGGCGGGFAGGFVDFGACD,1.79
19,YGGGLGGGYGGGFAGGFVDFGACD,1.69
20,YGGGLGGGQGGGFAGGFVDFGACD,2.1
21,YGGGLGGGMGGGFAGGFVDFGACD,1.45
22,YGGGLGGGTGGGFAGGFVDFGACD,2.28
23,YGGGLGGGLGGGFAGGFVDFGACD,1.76
24,YGGGLGGGDGGGFAGGFVDFGACD,2.46

row,Variant,protein stability index
1,YGGGLGGGEGGGFAGGFVDFGACD,2.65
2,YGGGLGGGRGGGFAGGFVDFGACD,1.69
3,YGGGLGGGVGGGFAGGFVDFGACD,1.94
4,YGGGLGGGIGGGFAGGFVDFGACD,1.49
5,YGGGLGGGSGGGFAGGFVDFGACD,1.85
6,YGGGLGGGNGGGFAGGFVDFGACD,2
7,YGGGLGGGPGGGFAGGFVDFGACD,1.75
8,YGGGLGGGKGGGFAGGFVDFGACD,1.64
9,YGGGLGGGAGGGFAGGFVDFGACD,1.68
10,YGGGLGGGGGGGFAGGFVDFGACD,1.87
11,YGGGLGGGHGGGFAGGFVDFGACD,2.5
12,YGGGLGGGFMGGFAGGFVDFGACD,3.61
13,YGGGLGGGFCGGFAGGFVDFGACD,4
14,YGGGLGGGFHGGFAGGFVDFGACD,1.7
15,YGGGLGGGFKGGFAGGFVDFGACD,1.53
16,YGGGLGGGFWGGFAGGFVDFGACD,3.23
17,YGGGLGGGFVGGFAGGFVDFGACD,1.93
18,YGGGLGGGFRGGFAGGFVDFGACD,1.91
19,YGGGLGGGFQGGFAGGFVDFGACD,2.21
20,YGGGLGGGFPGGFAGGFVDFGACD,1.92
21,YGGGLGGGFSGGFAGGFVDFGACD,2.15
22,YGGGLGGGFAGGFAGGFVDFGACD,2.01
23,YGGGLGGGFIGGFAGGFVDFGACD,1.58
24,YGGGLGGGFTGGFAGGFVDFGACD,1.26

row,Variant,protein stability index
1,YGGGLGGGFEGGFAGGFVDFGACD,1.96
2,YGGGLGGGFFGGFAGGFVDFGACD,2.02
3,YGGGLGGGFDGGFAGGFVDFGACD,2.03
4,YGGGLGGGFNGGFAGGFVDFGACD,1.38
5,YGGGLGGGFYGGFAGGFVDFGACD,3.74
6,YGGGLGGGFGGPFAGGFVDFGACD,2.17
7,YGGGLGGGFGGEFAGGFVDFGACD,1.84
8,YGGGLGGGFGGIFAGGFVDFGACD,2.4
9,YGGGLGGGFGGMFAGGFVDFGACD,2.92
10,YGGGLGGGFGGLFAGGFVDFGACD,2.25
11,YGGGLGGGFGGCFAGGFVDFGACD,2.75
12,YGGGLGGGFGGDFAGGFVDFGACD,2.22
13,YGGGLGGGFGGHFAGGFVDFGACD,1.4
14,YGGGLGGGFGGFFAGGFVDFGACD,3.05
15,YGGGLGGGFGGKFAGGFVDFGACD,1.69
16,YGGGLGGGFGGNFAGGFVDFGACD,1.04
17,YGGGLGGCFGGGFAGGFVDFGACD,1.26
18,YGGGLGGKFGGGFAGGFVDFGACD,1.24
19,YGGGLGGTFGGGFAGGFVDFGACD,1.77
20,YGGGLGGPFGGGFAGGFVDFGACD,1.75
21,YGGGLGGNFGGGFAGGFVDFGACD,1.78
22,YGGGLGGEFGGGFAGGFVDFGACD,1.72
23,YGGGLGGHFGGGFAGGFVDFGACD,3
24,YGGGLGGQFGGGFAGGFVDFGACD,1.23

row,Variant,protein stability index
1,YGGGLGGVFGGGFAGGFVDFGACD,2.48
2,YGGGLGGDFGGGFAGGFVDFGACD,2.41
3,YGGGLGGWFGGGFAGGFVDFGACD,3.32
4,YGGGLGGRFGGGFAGGFVDFGACD,1.67
5,YGGGLGGSFGGGFAGGFVDFGACD,2.72
6,YGGGLGGIFGGGFAGGFVDFGACD,2.44
7,YGGGLGGAFGGGFAGGFVDFGACD,1.93
8,YGGGLGCGFGGGFAGGFVDFGACD,3.15
9,YGGGLGMGFGGGFAGGFVDFGACD,2.46
10,YGGGLGDGFGGGFAGGFVDFGACD,1.89
11,YGGGLGQGFGGGFAGGFVDFGACD,1.23
12,YGGGLGEGFGGGFAGGFVDFGACD,1.91
13,YGGGLGFGFGGGFAGGFVDFGACD,3.32
14,YGGGLGPGFGGGFAGGFVDFGACD,1.84
15,YGGGLGYGFGGGFAGGFVDFGACD,2.36
16,YGGGLGTGFGGGFAGGFVDFGACD,1.49
17,YGGGLGNGFGGGFAGGFVDFGACD,1.31
18,YGGGLGSGFGGGFAGGFVDFGACD,1.48
19,YGGGLGIGFGGGFAGGFVDFGACD,1.9
20,YGGGLGLGFGGGFAGGFVDFGACD,1.81
21,YGGGLGRGFGGGFAGGFVDFGACD,1.74
22,YGGGLGHGFGGGFAGGFVDFGACD,1.92
